Patent US20160272698A1
Ends that are not written are not given here.

B1: AVR1674 (LFG2 3F3:3H9:2C10:4B10) (antibody, V domains shown)
VH: EVQLQVSGAELVKPGASVRLSCKASGYTFTSYYIYWVKQRPGQGLEWIGDINPSDGDTDFNEKFKSKATLTVDKSSSTAYMQLSSLTSEDSAVYYCTRSRGGFAYWGQGTLVTVSA
VL: SHGDQASISSRSSQSIVHSNGNTYLEWYLQKPAQSPKLLIFKVSNRFSGVPDRFSRSGSGTDFTLKISRVEAEDLGIYYCSQGSHVPWTFGGGTKL
B2: …-biotin (SEQ ID NO: 31) (peptide)
peptide: TFKDEAGGGSK-biotin
B3: …-biotin (SEQ ID NO: 36) (peptide)
peptide: THKDEIGGGSK-biotin
B4: …-biotin (SEQ ID NO: 25) (peptide)
peptide: TFKDEIGGGSK-biotin
B5: …-biotin (SEQ ID NO: 37) (peptide)
peptide: TFQDEIGGGSK-biotin
B6: …-biotin (SEQ ID NO: 30) (peptide)
peptide: TFKDAIGGGSK-biotin

biological target: Bacillus anthracis lethal factor (recombinant LF) (Bacillus anthracis) (UniProt P15917); assay: immunoblot of denatured recombinant LF
UniProt P15917, sequence (P15917 34-809 limits assumed): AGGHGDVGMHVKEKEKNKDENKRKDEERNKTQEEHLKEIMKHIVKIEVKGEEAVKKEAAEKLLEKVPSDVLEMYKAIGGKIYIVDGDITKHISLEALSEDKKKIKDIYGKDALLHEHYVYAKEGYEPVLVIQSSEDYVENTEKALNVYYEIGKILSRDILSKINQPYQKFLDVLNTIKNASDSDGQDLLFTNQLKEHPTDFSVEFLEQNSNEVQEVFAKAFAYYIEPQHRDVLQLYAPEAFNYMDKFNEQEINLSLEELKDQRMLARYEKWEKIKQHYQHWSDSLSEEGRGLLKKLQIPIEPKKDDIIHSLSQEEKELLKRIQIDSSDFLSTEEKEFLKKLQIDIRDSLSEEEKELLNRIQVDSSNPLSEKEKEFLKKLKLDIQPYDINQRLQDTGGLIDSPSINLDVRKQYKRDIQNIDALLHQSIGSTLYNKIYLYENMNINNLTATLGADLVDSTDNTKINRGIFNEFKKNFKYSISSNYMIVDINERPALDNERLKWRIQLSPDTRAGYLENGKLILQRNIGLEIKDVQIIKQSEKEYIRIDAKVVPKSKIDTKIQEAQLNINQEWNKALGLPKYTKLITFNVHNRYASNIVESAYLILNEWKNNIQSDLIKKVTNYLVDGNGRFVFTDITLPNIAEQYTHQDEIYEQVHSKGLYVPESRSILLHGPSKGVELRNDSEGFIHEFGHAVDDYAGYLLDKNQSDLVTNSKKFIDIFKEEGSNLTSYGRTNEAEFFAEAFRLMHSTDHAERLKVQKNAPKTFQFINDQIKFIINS

Binder	amount of LF detected by immunoblot
B1	< 30 ng

biological target: AVR1674 (LFG2 3F3:3H9:2C10:4B10); assay: biolayer interferometry (Octet), biotinylated peptide on streptavidin tips, LFG2:4B10 mAb in solution, 1:1 Langmuir fit

Binder	Kd
B2	16.4 nM
B3	60 nM
B4	13.9 nM
B5	34.4 nM
B6	24.5 nM

biological target: AVR1674 (LFG2 3F3:3H9:2C10:4B10); assay: biolayer interferometry (Octet), follow-up experiment, 4-point titration of mAb LFG2 against the peptide

Binder	Kd
B4	9.97 nM

biological target: AVR1674 (LFG2 3F3:3H9:2C10:4B10); assay: biolayer interferometry (Octet), biotinylated peptide on streptavidin tips, LFG2:4B10 mAb at 500 nM

Binder	Response R
B2	5.29 nm
B3	2.37 nm
B4	4.84 nm
B5	1.34 nm
B6	1.01 nm
